The values that follow are results of earlier work, collected in publication PMC7022251.

This series concerns the target Beclin-1 BH3 (UniProt Q14457).

pKd: −log10 of the molar value.

Chain of UniProt Q14457 (Q14457 105-130): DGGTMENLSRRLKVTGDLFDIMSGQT

The pKd is the negative decadic logarithm of the Kd, by convention in mol/L. Consider M11 (from UniProt P89884), for which the pKd was 7.40.
